Source: patent US20240409634A1 (Janssen / Centocor, published 2024)

B1: CD33 antibody JL2 combined with Vdelta2 antibody 6H4 (JL2x6H4), Fab (CD33) x VHH (Vδ2) Fc construct (bispecific antibody, human IgG1, kappa, L234A L235A)
heavy: EVQLVESGGGLVQPGGSLRLSCVVSGFTFSSYWMTWVRQAPGKGLEWVANIKQDGSERYYVDSVKGRFTISRDSAKNSLYLQMNSLRAEDTAVYYCAREVGYNWNQGGYFDYWGQGTLVTVSSASTKGPSVFPLAPSSKSTSGGTAALGCLVKDYFPEPVTVSWNSGALTSGVHTFPAVLQSSGLYSLSSVVTVPSSSLGTQTYICNVNHKPSNTKVDKKVEPKSCDKTHTCPPCPAPEAAGGPSVFLFPPKPKDTLMISRTPEVTCVVVSVSHEDPEVKFNWYVDGVEVHNAKTKPREEQYNSTYRVVSVLTVLHQDWLNGKEYKCKVSNKALPAPIEKTISKAKGQPREPQVYTLPPSREEMTKNQVSLSCAVKGFYPSDIAVEWESNGQPENNYKTTPPVLDSDGSFFLVSKLTVDKSRWQQGNVFSCSVMHEALHNRFTQKSLSLSPGK
light: DIVMTQSPLSLPVTPGEPASISCRSSQSLLHSDGYNYLDWYLQKSGQSPQLLIYLGSYRASGVPDRFSGSGSGTDFTLKISRVEAEDVGIYYCMQVLQTPWTFGQGTKVEIKRTVAAPSVFIFPPSDEQLKSGTASVVCLLNNFYPREAKVQWKVDNALQSGNSQESVTEQDSKDSTYSLSSTLTLSKADYEKHKVYACEVTHQGLSSPVTKSFNRGEC
chain: EVQLVESGGGLVQAGGSLRLSCAASGRPFSNYGMGWFRQAPGKKREFVAGISWSGGSTDYADSVKGRFTISRDNAKNTVYLQMNSLKPEDTAVYYCAAVFSGAETAYYPSDDYDYWGQGTQVTVSSEPKSSDKTHTCPPCPAPEAAGGPSVFLFPPKPKDTLMISRTPEVTCVVVSVSHEDPEVKFNWYVDGVEVHNAKTKPREEQYNSTYRVVSVLTVLHQDWLNGKEYKCKVSNKALPAPIEKTISKAKGQPREPQVYTLPPSREEMTKNQVSLWCLVKGFYPSDIAVEWESNGQPENNYKTTPPVLDSDGSFFLYSKLTVDKSRWQQGNVFSCSVMHEALHNHYTQKSLSLSPGK
B2: CD33 antibody JL2 combined with Vdelta2 antibody 5D3 (JL2x5D3), Fab (CD33) x VHH (Vδ2) Fc construct (bispecific antibody, human IgG1, kappa, L234A L235A)
heavy: EVQLVESGGGLVQPGGSLRLSCVVSGFTFSSYWMTWVRQAPGKGLEWVANIKQDGSERYYVDSVKGRFTISRDSAKNSLYLQMNSLRAEDTAVYYCAREVGYNWNQGGYFDYWGQGTLVTVSSASTKGPSVFPLAPSSKSTSGGTAALGCLVKDYFPEPVTVSWNSGALTSGVHTFPAVLQSSGLYSLSSVVTVPSSSLGTQTYICNVNHKPSNTKVDKKVEPKSCDKTHTCPPCPAPEAAGGPSVFLFPPKPKDTLMISRTPEVTCVVVSVSHEDPEVKFNWYVDGVEVHNAKTKPREEQYNSTYRVVSVLTVLHQDWLNGKEYKCKVSNKALPAPIEKTISKAKGQPREPQVYTLPPSREEMTKNQVSLSCAVKGFYPSDIAVEWESNGQPENNYKTTPPVLDSDGSFFLVSKLTVDKSRWQQGNVFSCSVMHEALHNRFTQKSLSLSPGK
light: DIVMTQSPLSLPVTPGEPASISCRSSQSLLHSDGYNYLDWYLQKSGQSPQLLIYLGSYRASGVPDRFSGSGSGTDFTLKISRVEAEDVGIYYCMQVLQTPWTFGQGTKVEIKRTVAAPSVFIFPPSDEQLKSGTASVVCLLNNFYPREAKVQWKVDNALQSGNSQESVTEQDSKDSTYSLSSTLTLSKADYEKHKVYACEVTHQGLSSPVTKSFNRGEC
chain: EVQLVESGGGLVQAGGSLRLSCAASGRPFSNYAMGWFRQAPGKEREFVTVISWSGGSTYYADSVKGRFTISRDNAKNTVYLQMNSLKPEDTAVYYCAAQFSGASTVVAGTALDYDYWGQGTRVTVSSEPKSSDKTHTCPPCPAPEAAGGPSVFLFPPKPKDTLMISRTPEVTCVVVSVSHEDPEVKFNWYVDGVEVHNAKTKPREEQYNSTYRVVSVLTVLHQDWLNGKEYKCKVSNKALPAPIEKTISKAKGQPREPQVYTLPPSREEMTKNQVSLWCLVKGFYPSDIAVEWESNGQPENNYKTTPPVLDSDGSFFLYSKLTVDKSRWQQGNVFSCSVMHEALHNHYTQKSLSLSPGK
B3: CD33 antibody JL3 combined with Vdelta2 antibody 6H4 (JL3x6H4), Fab (CD33) x VHH (Vδ2) Fc construct (bispecific antibody, human IgG1, lambda, L234A L235A)
heavy: QVQLQESGPGLVKPSETLSLTCSVSGGSIRNYYWSWIRQSAGKELEWFGHIFSTGHINYDSSLKSRVTMSVDTSNNQFSLKLRSVTAADTAVYYCARDNGAALFDFWGQGTLVTVSSASTKGPSVFPLAPSSKSTSGGTAALGCLVKDYFPEPVTVSWNSGALTSGVHTFPAVLQSSGLYSLSSVVTVPSSSLGTQTYICNVNHKPSNTKVDKKVEPKSCDKTHTCPPCPAPEAAGGPSVFLFPPKPKDTLMISRTPEVTCVVVSVSHEDPEVKFNWYVDGVEVHNAKTKPREEQYNSTYRVVSVLTVLHQDWLNGKEYKCKVSNKALPAPIEKTISKAKGQPREPQVYTLPPSREEMTKNQVSLSCAVKGFYPSDIAVEWESNGQPENNYKTTPPVLDSDGSFFLVSKLTVDKSRWQQGNVFSCSVMHEALHNRFTQKSLSLSPGK
light: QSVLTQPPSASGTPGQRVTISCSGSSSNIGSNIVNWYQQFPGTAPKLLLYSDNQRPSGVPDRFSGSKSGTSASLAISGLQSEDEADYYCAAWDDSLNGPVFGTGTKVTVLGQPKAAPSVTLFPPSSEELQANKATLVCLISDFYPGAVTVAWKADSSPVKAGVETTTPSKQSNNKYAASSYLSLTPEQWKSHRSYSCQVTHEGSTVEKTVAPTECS
chain: EVQLVESGGGLVQAGGSLRLSCAASGRPFSNYGMGWFRQAPGKKREFVAGISWSGGSTDYADSVKGRFTISRDNAKNTVYLQMNSLKPEDTAVYYCAAVFSGAETAYYPSDDYDYWGQGTQVTVSSEPKSSDKTHTCPPCPAPEAAGGPSVFLFPPKPKDTLMISRTPEVTCVVVSVSHEDPEVKFNWYVDGVEVHNAKTKPREEQYNSTYRVVSVLTVLHQDWLNGKEYKCKVSNKALPAPIEKTISKAKGQPREPQVYTLPPSREEMTKNQVSLWCLVKGFYPSDIAVEWESNGQPENNYKTTPPVLDSDGSFFLYSKLTVDKSRWQQGNVFSCSVMHEALHNHYTQKSLSLSPGK
B4: CD33 antibody JL3 combined with Vdelta2 antibody 5D3 (JL3x5D3), Fab (CD33) x VHH (Vδ2) Fc construct (bispecific antibody, human IgG1, lambda, L234A L235A)
heavy: QVQLQESGPGLVKPSETLSLTCSVSGGSIRNYYWSWIRQSAGKELEWFGHIFSTGHINYDSSLKSRVTMSVDTSNNQFSLKLRSVTAADTAVYYCARDNGAALFDFWGQGTLVTVSSASTKGPSVFPLAPSSKSTSGGTAALGCLVKDYFPEPVTVSWNSGALTSGVHTFPAVLQSSGLYSLSSVVTVPSSSLGTQTYICNVNHKPSNTKVDKKVEPKSCDKTHTCPPCPAPEAAGGPSVFLFPPKPKDTLMISRTPEVTCVVVSVSHEDPEVKFNWYVDGVEVHNAKTKPREEQYNSTYRVVSVLTVLHQDWLNGKEYKCKVSNKALPAPIEKTISKAKGQPREPQVYTLPPSREEMTKNQVSLSCAVKGFYPSDIAVEWESNGQPENNYKTTPPVLDSDGSFFLVSKLTVDKSRWQQGNVFSCSVMHEALHNRFTQKSLSLSPGK
light: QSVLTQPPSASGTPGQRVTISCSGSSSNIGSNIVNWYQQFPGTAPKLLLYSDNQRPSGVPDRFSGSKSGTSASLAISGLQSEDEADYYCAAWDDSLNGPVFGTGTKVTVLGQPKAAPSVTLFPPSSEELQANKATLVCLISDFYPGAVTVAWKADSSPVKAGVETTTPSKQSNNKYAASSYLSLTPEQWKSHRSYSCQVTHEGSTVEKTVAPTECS
chain: EVQLVESGGGLVQAGGSLRLSCAASGRPFSNYAMGWFRQAPGKEREFVTVISWSGGSTYYADSVKGRFTISRDNAKNTVYLQMNSLKPEDTAVYYCAAQFSGASTVVAGTALDYDYWGQGTRVTVSSEPKSSDKTHTCPPCPAPEAAGGPSVFLFPPKPKDTLMISRTPEVTCVVVSVSHEDPEVKFNWYVDGVEVHNAKTKPREEQYNSTYRVVSVLTVLHQDWLNGKEYKCKVSNKALPAPIEKTISKAKGQPREPQVYTLPPSREEMTKNQVSLWCLVKGFYPSDIAVEWESNGQPENNYKTTPPVLDSDGSFFLYSKLTVDKSRWQQGNVFSCSVMHEALHNHYTQKSLSLSPGK
B5: CD33 antibody JL6 combined with Vdelta2 antibody 5D3 (JL6x5D3), Fab (CD33) x VHH (Vδ2) Fc construct (bispecific antibody, human IgG1, lambda, L234A L235A)
heavy: QVQLQESGPGLVKPSETLSLTCTVSGGSISSYYWGWIRQPPGKGLEWIGYIYYSGSTNYNPSLKSRVTISVDTSKNQFSLKLSSVTAADTAVYYCARMWEILGFDPWGQGTLVTVSSASTKGPSVFPLAPSSKSTSGGTAALGCLVKDYFPEPVTVSWNSGALTSGVHTFPAVLQSSGLYSLSSVVTVPSSSLGTQTYICNVNHKPSNTKVDKKVEPKSCDKTHTCPPCPAPEAAGGPSVFLFPPKPKDTLMISRTPEVTCVVVSVSHEDPEVKFNWYVDGVEVHNAKTKPREEQYNSTYRVVSVLTVLHQDWLNGKEYKCKVSNKALPAPIEKTISKAKGQPREPQVYTLPPSREEMTKNQVSLSCAVKGFYPSDIAVEWESNGQPENNYKTTPPVLDSDGSFFLVSKLTVDKSRWQQGNVFSCSVMHEALHNRFTQKSLSLSPGK
light: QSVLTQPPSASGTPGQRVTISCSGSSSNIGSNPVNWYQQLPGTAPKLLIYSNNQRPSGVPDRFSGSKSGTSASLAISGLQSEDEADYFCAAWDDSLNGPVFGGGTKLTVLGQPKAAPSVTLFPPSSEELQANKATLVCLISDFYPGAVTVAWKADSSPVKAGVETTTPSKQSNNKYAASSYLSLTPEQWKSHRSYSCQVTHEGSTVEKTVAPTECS
chain: EVQLVESGGGLVQAGGSLRLSCAASGRPFSNYAMGWFRQAPGKEREFVTVISWSGGSTYYADSVKGRFTISRDNAKNTVYLQMNSLKPEDTAVYYCAAQFSGASTVVAGTALDYDYWGQGTRVTVSSEPKSSDKTHTCPPCPAPEAAGGPSVFLFPPKPKDTLMISRTPEVTCVVVSVSHEDPEVKFNWYVDGVEVHNAKTKPREEQYNSTYRVVSVLTVLHQDWLNGKEYKCKVSNKALPAPIEKTISKAKGQPREPQVYTLPPSREEMTKNQVSLWCLVKGFYPSDIAVEWESNGQPENNYKTTPPVLDSDGSFFLYSKLTVDKSRWQQGNVFSCSVMHEALHNHYTQKSLSLSPGK
B6: CD33 antibody JL5 combined with Vdelta2 antibody 5D3 (JL5x5D3), Fab (CD33) x VHH (Vδ2) Fc construct (bispecific antibody, human IgG1, lambda, L234A L235A)
heavy: QVQLQESGPGLVKPSETLSLTCSVSGASIRNYYWSWIRQTAGKGLEWLGHIYSTGNIHYNPSLKSRVTMSVDTSNNQFSLKLRSVTAADTAVYYCARDNGAALFDYWGQGTLVTVSSASTKGPSVFPLAPSSKSTSGGTAALGCLVKDYFPEPVTVSWNSGALTSGVHTFPAVLQSSGLYSLSSVVTVPSSSLGTQTYICNVNHKPSNTKVDKKVEPKSCDKTHTCPPCPAPEAAGGPSVFLFPPKPKDTLYITREPEVTCVVVSVSHEDPEVKFNWYVDGVEVHNAKTKPREEQYNSTYRVVSVLTVLHQDWLNGKEYKCKVSNKALPAPIEKTISKAKGQPREPQVYTLPPSREEMTKNQVSLSCAVKGFYPSDIAVEWESNGQPENNYKTTPPVLDSDGSFFLVSKLTVDKSRWQQGNVFSCSVMHEALHNRFTQKSLSLSPGK
light: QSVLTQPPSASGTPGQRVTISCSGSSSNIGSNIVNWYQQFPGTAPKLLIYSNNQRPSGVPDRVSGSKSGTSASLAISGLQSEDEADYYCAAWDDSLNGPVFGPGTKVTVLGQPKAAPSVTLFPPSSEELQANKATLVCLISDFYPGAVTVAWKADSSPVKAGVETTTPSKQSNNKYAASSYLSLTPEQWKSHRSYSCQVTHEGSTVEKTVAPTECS
chain: EVQLVESGGGLVQAGGSLRLSCAASGRPFSNYAMGWFRQAPGKEREFVTVISWSGGSTYYADSVKGRFTISRDNAKNTVYLQMNSLKPEDTAVYYCAAQFSGASTVVAGTALDYDYWGQGTRVTVSSEPKSSDKTHTCPPCPAPEAAGGPSVFLFPPKPKDTLYITREPEVTCVVVSVSHEDPEVKFNWYVDGVEVHNAKTKPREEQYNSTYRVVSVLTVLHQDWLNGKEYKCKVSNKALPAPIEKTISKAKGQPREPQVYTLPPSREEMTKNQVSLWCLVKGFYPSDIAVEWESNGQPENNYKTTPPVLDSDGSFFLYSKLTVDKSRWQQGNVFSCSVMHEALHNHYTQKSLSLSPGK

What follows are binders tested against human CD33 on CD33-expressing THP-1 cells (human, UniProt P20138 18-364) (assay: cell-based or functional assay).
human CD33 on CD33-expressing THP-1 cells, sequence (P20138 18-364): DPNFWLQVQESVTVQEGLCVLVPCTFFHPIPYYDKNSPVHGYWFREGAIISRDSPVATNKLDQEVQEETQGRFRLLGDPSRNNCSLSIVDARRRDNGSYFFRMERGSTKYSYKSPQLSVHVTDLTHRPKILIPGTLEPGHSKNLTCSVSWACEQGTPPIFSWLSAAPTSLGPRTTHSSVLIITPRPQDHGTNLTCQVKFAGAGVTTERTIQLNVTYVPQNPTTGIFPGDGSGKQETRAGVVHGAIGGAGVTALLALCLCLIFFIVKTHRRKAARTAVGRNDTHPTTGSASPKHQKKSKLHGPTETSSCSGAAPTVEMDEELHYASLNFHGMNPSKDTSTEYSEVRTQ

Point of comparison: B1, “Cytotox EC50 (pM) E:T 1:1 - 22 hrs” value 4 pM. Against it:
- B2 — higher, 28 pM
- B3 — lower, 2.5 pM
- B4 — higher, 15 pM
- B5 — higher, 63 pM
- B6 — higher, 12 pM

Point of comparison: B4, “Cytotox EC50 (pM) E:T 1:20 - 94 hrs” value 77 pM. Against it:
- B1 — lower, 20 pM
- B2 — higher, ~380 pM
- B3 — lower, 12 pM
- B5 — higher, ~560 pM
- B6 — lower, 45 pM
